Positions count from the first letter of the chain named. Names and notes keep the numbering of the source. “Also recorded” adds a separate entry of the source.
T1: MTDH-SND1 interaction (Homo sapiens, UniProt Q7KZF4)
T1 construct: Full-length HA-tagged SND1 was co-expressed with full-length Myc-tagged wild-type (WT) or mutant MTDH in HEK293T cells; expressed in transfected cells; host or cells: 293T
T1 sequence (Q7KZF4 1-910): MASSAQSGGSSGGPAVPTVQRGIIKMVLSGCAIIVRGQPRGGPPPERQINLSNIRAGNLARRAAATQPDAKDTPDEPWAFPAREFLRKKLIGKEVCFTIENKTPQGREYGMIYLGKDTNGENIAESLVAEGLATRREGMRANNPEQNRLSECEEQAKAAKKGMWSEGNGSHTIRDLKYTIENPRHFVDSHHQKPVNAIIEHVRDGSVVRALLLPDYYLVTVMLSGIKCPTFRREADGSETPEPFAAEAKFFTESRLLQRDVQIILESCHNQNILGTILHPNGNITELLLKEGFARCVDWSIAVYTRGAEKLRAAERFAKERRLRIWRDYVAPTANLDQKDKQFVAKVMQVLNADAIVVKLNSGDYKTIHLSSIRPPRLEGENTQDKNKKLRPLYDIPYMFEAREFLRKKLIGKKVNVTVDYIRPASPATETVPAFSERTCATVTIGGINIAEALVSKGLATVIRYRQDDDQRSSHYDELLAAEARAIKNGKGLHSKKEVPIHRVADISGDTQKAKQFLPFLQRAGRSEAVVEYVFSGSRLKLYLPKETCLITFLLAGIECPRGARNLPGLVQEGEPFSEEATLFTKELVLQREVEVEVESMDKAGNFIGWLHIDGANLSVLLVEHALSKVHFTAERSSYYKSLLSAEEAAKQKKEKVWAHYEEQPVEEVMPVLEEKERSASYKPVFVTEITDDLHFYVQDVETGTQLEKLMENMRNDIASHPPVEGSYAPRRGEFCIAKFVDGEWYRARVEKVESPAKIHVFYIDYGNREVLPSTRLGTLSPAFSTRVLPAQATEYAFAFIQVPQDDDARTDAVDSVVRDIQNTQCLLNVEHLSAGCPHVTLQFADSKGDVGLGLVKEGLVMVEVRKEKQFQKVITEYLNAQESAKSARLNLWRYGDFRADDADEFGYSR

T2: SND1 (Homo sapiens, UniProt Q7KZF4)
T2 construct: 15 μg of His-SND1 (16-339) was added to the resin; made in house; host or cells: E. coli DH5α
T2 sequence (Q7KZF4 1-339): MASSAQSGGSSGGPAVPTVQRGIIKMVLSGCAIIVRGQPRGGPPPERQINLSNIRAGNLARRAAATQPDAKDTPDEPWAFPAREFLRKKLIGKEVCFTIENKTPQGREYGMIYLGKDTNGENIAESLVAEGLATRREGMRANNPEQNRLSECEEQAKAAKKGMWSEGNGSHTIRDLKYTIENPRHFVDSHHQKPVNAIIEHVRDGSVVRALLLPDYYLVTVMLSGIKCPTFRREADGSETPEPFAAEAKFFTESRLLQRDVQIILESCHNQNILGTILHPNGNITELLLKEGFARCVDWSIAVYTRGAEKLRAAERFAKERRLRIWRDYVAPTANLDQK

T3: SND1 (Homo sapiens, UniProt Q7KZF4)
T3 construct: Full-length HA-tagged SND1 was co-expressed with full-length Myc-tagged wild-type (WT) or mutant MTDH in HEK293T cells; expressed in transfected cells; host or cells: HEK293T
T3 sequence (Q7KZF4 1-910): T1 sequence (Q7KZF4 1-910)

B1: TPM1: MTDH triple-point mutant D389R, D393R and W394D (protein)
chain: YQWDVSRNQPYIDDEWSGLNGLSSARPNSRDNAPAEEWGNWVDEERASLLKSQEPIPDDQKVSDDDKEKGEGALPTGKSKKKKKKKKKQGEDNSTAQDTEELEKEIREDLPVNTSKTRPKQEKAFSLKTISTSDPAEVLVKNSQPIKTLPPATSTEPSVILSKSDSDKSSSQVPPILQETDKSKSNTKQNSVPPSQTKSETSWESPKQIKKKKKARRET
modifications: left off: a dimerising Fc or GST
notes: MTDH triple-point mutant D389R, D393R and W394D
B2: TPM2: MTDH triple-point mutant E399R, E400R and W401D (protein)
chain: B1 chain with R26D, R30D, D31W, E36R, E37R, W38D
modifications: left off: a dimerising Fc or GST
notes: MTDH triple-point mutant E399R, E400R and W401D

Tests used:
MTDH-SND1 interaction = molecular target: T1, MTDH-SND1 interaction; assay: Immunoprecipitation assay: elution or co-incubation with MTDH peptides, western blot; assay type: biochemical; conditions: 50 uM of peptides; IP of HA-SND1 from 293T (HA-SND1 + MYC-MTDH) and of endogenous SND1 from MDA-MB-231
Procedure: 293T cells co-transfected with HA-SND1 and MYC-MTDH. After 48 hr cells were collected and subjected to IP assay. (FIG. 26A, FIG. 26B) Cell lysate was incubated with anti-HA antibody or IgG overnight followed by 2 hr incubation with Protein A/G beads to pull down HA-SND1 protein. The beads was washed with lysis buffer and split into 5 fractions. Each fraction was eluted with buffer or indicated peptides for 30 min. The elution fractions and beads were collected for WB. (FIG. 26C, FIG. 26D) Cell lyaste was split into 6 fractions, one of them was incubated with IgG and the rest were incubated with anti-HA antibody plus either buffer or indicated peptides. After 24 hr, the lysate was incubated with Protein A/G beads then the beads were washed in wash buffer.
Breast cancer cells MDA-MB231 were collected and subjected to IP assay. (FIG. 27A) Cell lysate was incubated with anti-SND1 antibody or IgG overnight followed by 2 hr incubation with Protein A/G beads to pull down endogenous SND1 protein. The beads were washed with lysis buffer and split into 5 fractions. Each fraction was eluted with buffer or indicated peptides for 30 min. The elution fractions and beads were collected for WB. (FIG. 27B) Cell lyaste was split into 5 fractions, and incubated with anti-SND1 antibody plus either buffer or indicated peptides. After 24 hr, the lysate was incubated with Protein A/G beads then the beads were washed in wash buffer.
293 T cells were co-transfected with HA-SND1 and MYC-MTDH. After 48 hours, the cells were collected and subject to immunoprecipitation assay. Cell lysate was incubated with anti-HA antibody or IgG overnight followed by a two hour incubation with Protein A/G beads to pull down HA-SND1 protein. The beads were washed with lysis buffer and split into five fractions. Each fraction was eluted with buffer or indicated peptides (i.e., Peptide—wt (PNSDWNAPAEEWGNW, SEQ ID NO: 16); Peptide-394A (PNSDANAPAEEWGNW, SEQ ID NO: 17); Peptide-401A (PNSDWNAPAEEAGNW, SEQ ID NO: 18) and Peptide-MT (PNSDANAPAEEAGNW, SEQ ID NO: 19) for 30 minutes.
The elution fractions and beads were collected for western blot. (FIGS. 26C and 26D) Cell lyaste was split into 6 fractions. One of the fractions was incubated with IgG and the rest were incubated with anti-HA antibody plus either buffer or indicated peptides. After 24 hours, the lysate was incubated with Protein A/G beads then the beads was washed followed by wash buffer. 50 uM of peptides was used in all the assays.
The interaction interruption effects was confirmed by endogenous immunoprecipitation (IP) of a breast cancer cell line. Briefly, cell lysates from the breast cancer cell line MDA-MB-231 were collected and subjected to IP assay. […]

SND1 [1] = molecular target: T2, SND1; assay: GST-mediated pull-down of SND1 by GST-tagged MTDH fragments and mutants; assay type: binding; conditions: His6-SND1ΔC (1-339); Coomassie blue staining
How it was run: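 GST-MTDH fragments or mutants (~20 μg) on glutathione resin incubated with 15 μg His-SND1 (16-339) in 25 mM Tris pH 8.0, 150 mM NaCl, 3 mM DTT plus 2 mg/ml BSA. Bound protein resolved by SDS-PAGE, Coomassie-stained; bound SND1 ratio quantified by densitometry over 3 repeats.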

SND1 [2] = molecular target: T3, SND1; assay: Co-immunoprecipitation of full-length Myc-MTDH (WT or mutant) and HA-SND1 in HEK293T cells; assay type: cell-based; conditions: HEK293T cell lysates, immunoprecipitation and immunoblot
Text: (§1) FIGS. 7A-E represents determination of key regions and residues mediating the MTDH-SND1 interaction. (FIG. 7A) Schematics of MTDH fragments and mutants with indicated SND1-binding capability. + indicates binding and − indicates no binding based on results shown below. Two putative nuclear localization signals are residues 432-451 for NLS2 and residues 561-580 for NLS3. In the enlarged view of the minimal binding region 386-407, 9 residues were targeted for mutagenesis in the current study. […] (FIG. 7B) Pulldown of His6-SND1AC by GST-tagged MTDH fragments with indicated boundaries. The bound proteins were examined by SDS-PAGE and visualized by Coomassie blue staining. (FIG. 7C) Pulldown of His6-SND1ΔC by GST-tagged WT or triple mutant MTDH fragments (364-582). For (FIG. 7B) and (FIG. 7C), 1/10 of the His6-SND1ΔC input was shown, and GST alone was used as a negative control. Representative results of 3 independent experiments are shown. (FIG. 7D, FIG. 7E) Lysates from HEK293T cells expressing the indicated ectopic human SND1, AGO2 or MTDH were immunoprecipitated with anti-Myc and immunoblotted with the indicated antibodies.
(FIG. 22A) In vitro pull-down of SND1 (16-339) by GST-tagged MTDH (364-582) harboring WT or mutant sequence. The proteins bound to GS4B were examined on SDS-PAGE and visualized by Coomassie blue staining. (FIG. 22B) In vitro pull-down of WT and mutant SND1 (16-339) by GST-tagged MTDH (364-582). The bound proteins were examined as in (FIG. 22A). For both (FIG. 22A) and (FIG. 22B), experiments were repeated three times; representative results are shown. The normalized percentage of binding was averaged from three experiments; mean±SEM was shown below the data. (FIG. 22C) HEK293T cells were transfected with human HA-SND1, WT Myc-MTDH or Myc-MTDH with indicated single point mutation. Lysates were immunoprecipitated with anti-Myc antibody and immunoblotted with the indicated antibodies. (FIG. 22D) HEK293T cells were transfected with human Myc-MTDH, WT HA-SND1 or mutant HA-SND1 with indicated single point mutations or deletions. Lysates were immunoprecipitated with anti-Myc and immunoblotted with the indicated antibodies.
Immunoprecipitation and western blot For immunoprecipitation (IP) experiments, cultured cells were washed in cold PBS and lysed in lysis buffer (20 mM Tris pH 7.4, 0.15 M NaCl, 1 mM EDTA, 1 mM EGTA, 1% Tx-100, 0.0025 M Na2P2O7, 1 mM α-glycerolphosphate, 1 mM Na3VO4, and 1 mM NaF) with an EDTA-free protease inhibitor mixture (Roche Applied Science) and PMSF. Cell lysates were then incubated on ice for 10 min, centrifuged, and precleared by incubating with protein A/G beads (Santa Cruz Biotechnology) for 1 h at 4° C. For IP bead preparation, 30 μl of protein A/G beads were incubated with 5 μg of antibodies for 2 h at 4° C. IPs were carried out for overnight at 4° C., and beads were centrifuged, washed and subsequently boiled for 5 min in SDS protein loading buffer to elute bound protein. IP lysates were subjected to western blotting with indicated antibodies.
Immunoprecipitation and western blot: For in vivo immunoprecipitation (IP) experiments, cultured cells were washed in cold PBS and lysed in lysis buffer (20 mM Tris pH 7.4, 0.15 M NaCl, 1 mM EDTA, 1 mM EGTA, 1% Tx-100, 0.0025 M Na2P2O7, 1 mM β-glycerolphosphate, 1 mM Na3VO4, and 1 mM NaF) with an EDTA-free protease inhibitor mixture (Roche Applied Science) and PMSF. Cell lysates were then incubated on ice for 10 min, centrifuged, and precleared by incubating with protein A/G beads (Santa Cruz Biotechnology) for 1 h at 4° C. For IP bead preparation, 30 μl of protein A/G beads were incubated with 5 μg of antibodies for 2 h at 4° C. IPs were carried out for overnight at 4° C., and beads were centrifuged, washed and subsequently boiled for 5 min in SDS protein loading buffer to elute bound protein. IP lysates were subjected to western blotting with indicated antibodies.

AGO2 = molecular target: T4, AGO2 (Homo sapiens, UniProt Q9UKV8); assay: Co-immunoprecipitation of Myc-MTDH mutants with AGO2 in HEK293T cells; assay type: cell-based; conditions: HEK293T cell lysates, anti-Myc immunoprecipitation
T4 construct: expressed in transfected cells; host or cells: HEK293T
T4 sequence (Q9UKV8 whole entry): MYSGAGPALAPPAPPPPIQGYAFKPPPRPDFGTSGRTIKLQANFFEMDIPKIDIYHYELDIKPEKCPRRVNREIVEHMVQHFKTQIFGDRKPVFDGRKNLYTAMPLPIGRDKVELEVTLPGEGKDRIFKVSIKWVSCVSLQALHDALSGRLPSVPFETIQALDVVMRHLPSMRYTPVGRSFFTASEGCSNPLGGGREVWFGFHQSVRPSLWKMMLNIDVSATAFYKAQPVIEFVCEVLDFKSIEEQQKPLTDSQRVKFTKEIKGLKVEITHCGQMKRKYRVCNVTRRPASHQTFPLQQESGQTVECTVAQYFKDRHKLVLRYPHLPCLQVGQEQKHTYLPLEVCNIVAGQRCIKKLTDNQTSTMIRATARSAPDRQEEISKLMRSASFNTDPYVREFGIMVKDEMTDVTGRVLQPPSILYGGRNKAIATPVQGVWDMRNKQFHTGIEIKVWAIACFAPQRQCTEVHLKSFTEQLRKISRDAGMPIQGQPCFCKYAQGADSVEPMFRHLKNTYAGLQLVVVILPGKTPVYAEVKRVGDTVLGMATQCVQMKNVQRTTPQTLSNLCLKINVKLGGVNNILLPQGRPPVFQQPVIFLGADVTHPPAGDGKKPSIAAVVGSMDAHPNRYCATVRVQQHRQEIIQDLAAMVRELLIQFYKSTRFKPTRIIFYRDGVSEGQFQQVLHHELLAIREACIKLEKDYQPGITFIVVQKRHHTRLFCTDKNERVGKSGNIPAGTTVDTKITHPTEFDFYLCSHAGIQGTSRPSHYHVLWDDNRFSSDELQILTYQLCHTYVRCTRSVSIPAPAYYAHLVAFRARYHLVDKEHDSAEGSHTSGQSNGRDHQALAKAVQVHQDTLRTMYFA
Text: as §1, with “antibodies. […]” for “antibodies.”

Molecule | block of MTDH-SND1 interaction by peptide (MTDH-SND1 interaction) | SND1-binding of MTDH fragments and triple mutants, in vitro (SND1 [1]) | interaction of full-length MTDH (WT or mutant) with HA-SND1 (SND1 [2]) | interaction of MTDH mutants with AGO2 (AGO2)
PNSDANAPAEEAGNW (listed as Homo sapiens) [double point mutation] | have no effect in interrupting the interaction of MTDH with SND1 | – | – | –
PNSDANAPAEEWGNW (listed as Homo sapiens) [single point mutation W394A] | have no effect in interrupting the interaction of MTDH with SND1 | – | – | –
PNSDWNAPAEEAGNW (listed as Homo sapiens) | reduced the effectiveness of the wild type peptide by half | – | – | –
PNSDWNAPAEEWGNW (listed as Homo sapiens) [wild type MTDH peptide] | can effectively block MTDH-SND1 interaction; also recorded: significant block MTDH-SND1 interaction | – | – | –
B1 | – | could not bind | not | still able to interact with AGO2
B2 | – | could not bind | not | still able to interact with AGO2

Source: patent US10357539B2, “Use of peptides that block metadherin-SND1 interaction as treatment for cancer” (THE TRUSTEES OF PRINCETON UNIVERSITY, priority 2014, dated 2019)
